The term Kd denotes the concentration at which binding is half-saturated. A lower Kd goes with a tighter complex.

Experiment [1] concerns the target P301L tau repeat domain (P301L tauRD) (human). As to the kind of experiment: MST; Cy5-labelled wild-type or mutant tau/tauRD titrated with a serial two-fold dilution of DnaJC7 or single DnaJC7 domains; Monolith NT.115; technical triplicates; fit in PALMIST with a 1:1 binding model.
In experiment [2] the target is wild-type tau repeat domain (WT tauRD) (human). The experiment is described as above.

B1: DnaJC7 (full-length, wild type, recombinant) (natural protein)
chain: MAAAAECDVVMAATEPELLDDQEAKREAETFKEQGNAYYAKKDYNEAYNYYTKAIDMCPKNASYYGNRAATLMMLGRFREALGDAQQSVRLDDSFVRGHLREGKCHLSLGNAMAACRSFQRALELDHKNAQAQQEFKNANAVMEYEKIAETDFEKRDFRKVVFCMDRALEFAPACHRFKILKAECLAMLGRYPEAQSVASDILRMDSTNADALYVRGLCLYYEDCIEKAVQFFVQALRMAPDHEKACIACRNAKALKAKKEDGNKAFKEGNYKLAYELYTEALGIDPNNIKTNAKLYCNRGTVNSKLRKLDDAIEDCTNAVKLDDTYIKAYLRRAQCYMDTEQYEEAVRDYEKVYQTEKTKEHKQLLKNAQLELKKSKRKDYYKILGVDKNASEDEIKKAYRKRALMHHPDRHSGASAEVQKEEEKKFKEVGEAFTILSDPKKKTRYDSGQDLDEEGMNMGDFDPNNIFKAFFGGPGGFSFEASGPGNFFFQFG
B1: the values for the Kd in experiment [1] and in experiment [2] were 6.2 µM and 2.2 µM, respectively.

For the origin of these results see PMC8429438.
